Test results reported in patent publication US20260193346.

Legend:
[1] = biological target: murine LTBP4 TP2E fragment (UniProt Q8K4G1)
[2] = tested on: T1, human LTBP4 TP2E fragment (amino acids 357-586)
T1 sequence: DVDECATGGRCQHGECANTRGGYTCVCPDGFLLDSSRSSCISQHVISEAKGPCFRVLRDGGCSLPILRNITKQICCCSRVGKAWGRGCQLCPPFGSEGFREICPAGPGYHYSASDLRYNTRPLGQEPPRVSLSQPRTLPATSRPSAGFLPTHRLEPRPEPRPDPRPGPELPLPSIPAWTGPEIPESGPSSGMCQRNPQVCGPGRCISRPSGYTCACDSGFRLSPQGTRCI

[3] = tested on: human latent TGFβ binding protein 4 (LTBP4), full-length
[4] = biological target: murine LTBP4 deleted for the 12 amino acids (expressed fragment, FIG. 5) (UniProt Q8K4G1)
[5] = biological target: T2, Murine LTBP4 with the 12-amino-acid insertion (expressed fragment, FIG. 5) (UniProt Q8K4G1)
T2 sequence: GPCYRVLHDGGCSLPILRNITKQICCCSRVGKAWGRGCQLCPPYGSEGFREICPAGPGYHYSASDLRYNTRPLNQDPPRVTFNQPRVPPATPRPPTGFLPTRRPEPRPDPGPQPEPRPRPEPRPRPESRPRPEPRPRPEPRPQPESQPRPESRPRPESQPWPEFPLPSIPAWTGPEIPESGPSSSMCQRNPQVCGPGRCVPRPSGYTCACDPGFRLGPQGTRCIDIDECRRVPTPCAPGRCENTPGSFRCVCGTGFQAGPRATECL

[6] = tested on: T3, human LTBP4 proline-rich region fragment (FIG. 5)
T3 sequence: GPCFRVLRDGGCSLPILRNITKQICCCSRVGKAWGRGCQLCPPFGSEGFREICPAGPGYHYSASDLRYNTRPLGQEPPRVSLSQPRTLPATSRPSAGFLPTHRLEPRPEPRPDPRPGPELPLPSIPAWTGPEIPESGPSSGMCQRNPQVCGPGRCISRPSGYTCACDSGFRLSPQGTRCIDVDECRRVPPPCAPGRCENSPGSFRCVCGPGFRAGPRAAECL

Sequence of plasmin (P00747 20-580): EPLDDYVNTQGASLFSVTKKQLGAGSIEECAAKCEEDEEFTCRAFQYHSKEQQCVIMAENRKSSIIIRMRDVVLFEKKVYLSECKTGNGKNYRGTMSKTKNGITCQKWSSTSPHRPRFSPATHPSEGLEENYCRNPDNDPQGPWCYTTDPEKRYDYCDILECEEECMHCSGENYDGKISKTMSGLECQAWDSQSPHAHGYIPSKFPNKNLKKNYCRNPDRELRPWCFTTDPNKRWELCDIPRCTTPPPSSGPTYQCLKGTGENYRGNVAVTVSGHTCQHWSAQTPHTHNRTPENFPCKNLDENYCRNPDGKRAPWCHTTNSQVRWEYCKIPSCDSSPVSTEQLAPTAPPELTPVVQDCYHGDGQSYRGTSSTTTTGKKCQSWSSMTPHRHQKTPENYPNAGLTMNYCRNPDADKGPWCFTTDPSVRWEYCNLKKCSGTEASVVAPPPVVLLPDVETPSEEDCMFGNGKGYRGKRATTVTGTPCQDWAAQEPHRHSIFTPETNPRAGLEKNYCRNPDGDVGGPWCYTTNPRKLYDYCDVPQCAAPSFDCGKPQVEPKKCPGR
Sequence of plasmin (P00747 581-810): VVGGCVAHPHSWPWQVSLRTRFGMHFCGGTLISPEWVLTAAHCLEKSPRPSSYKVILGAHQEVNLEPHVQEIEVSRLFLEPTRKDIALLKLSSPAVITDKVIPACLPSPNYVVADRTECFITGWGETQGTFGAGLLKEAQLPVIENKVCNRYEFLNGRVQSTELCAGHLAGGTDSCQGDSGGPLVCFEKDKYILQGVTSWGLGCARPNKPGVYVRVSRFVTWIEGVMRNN
Sequence of human latent TGFβ binding protein 4 (LTBP4), full-length (chain, as listed by the source): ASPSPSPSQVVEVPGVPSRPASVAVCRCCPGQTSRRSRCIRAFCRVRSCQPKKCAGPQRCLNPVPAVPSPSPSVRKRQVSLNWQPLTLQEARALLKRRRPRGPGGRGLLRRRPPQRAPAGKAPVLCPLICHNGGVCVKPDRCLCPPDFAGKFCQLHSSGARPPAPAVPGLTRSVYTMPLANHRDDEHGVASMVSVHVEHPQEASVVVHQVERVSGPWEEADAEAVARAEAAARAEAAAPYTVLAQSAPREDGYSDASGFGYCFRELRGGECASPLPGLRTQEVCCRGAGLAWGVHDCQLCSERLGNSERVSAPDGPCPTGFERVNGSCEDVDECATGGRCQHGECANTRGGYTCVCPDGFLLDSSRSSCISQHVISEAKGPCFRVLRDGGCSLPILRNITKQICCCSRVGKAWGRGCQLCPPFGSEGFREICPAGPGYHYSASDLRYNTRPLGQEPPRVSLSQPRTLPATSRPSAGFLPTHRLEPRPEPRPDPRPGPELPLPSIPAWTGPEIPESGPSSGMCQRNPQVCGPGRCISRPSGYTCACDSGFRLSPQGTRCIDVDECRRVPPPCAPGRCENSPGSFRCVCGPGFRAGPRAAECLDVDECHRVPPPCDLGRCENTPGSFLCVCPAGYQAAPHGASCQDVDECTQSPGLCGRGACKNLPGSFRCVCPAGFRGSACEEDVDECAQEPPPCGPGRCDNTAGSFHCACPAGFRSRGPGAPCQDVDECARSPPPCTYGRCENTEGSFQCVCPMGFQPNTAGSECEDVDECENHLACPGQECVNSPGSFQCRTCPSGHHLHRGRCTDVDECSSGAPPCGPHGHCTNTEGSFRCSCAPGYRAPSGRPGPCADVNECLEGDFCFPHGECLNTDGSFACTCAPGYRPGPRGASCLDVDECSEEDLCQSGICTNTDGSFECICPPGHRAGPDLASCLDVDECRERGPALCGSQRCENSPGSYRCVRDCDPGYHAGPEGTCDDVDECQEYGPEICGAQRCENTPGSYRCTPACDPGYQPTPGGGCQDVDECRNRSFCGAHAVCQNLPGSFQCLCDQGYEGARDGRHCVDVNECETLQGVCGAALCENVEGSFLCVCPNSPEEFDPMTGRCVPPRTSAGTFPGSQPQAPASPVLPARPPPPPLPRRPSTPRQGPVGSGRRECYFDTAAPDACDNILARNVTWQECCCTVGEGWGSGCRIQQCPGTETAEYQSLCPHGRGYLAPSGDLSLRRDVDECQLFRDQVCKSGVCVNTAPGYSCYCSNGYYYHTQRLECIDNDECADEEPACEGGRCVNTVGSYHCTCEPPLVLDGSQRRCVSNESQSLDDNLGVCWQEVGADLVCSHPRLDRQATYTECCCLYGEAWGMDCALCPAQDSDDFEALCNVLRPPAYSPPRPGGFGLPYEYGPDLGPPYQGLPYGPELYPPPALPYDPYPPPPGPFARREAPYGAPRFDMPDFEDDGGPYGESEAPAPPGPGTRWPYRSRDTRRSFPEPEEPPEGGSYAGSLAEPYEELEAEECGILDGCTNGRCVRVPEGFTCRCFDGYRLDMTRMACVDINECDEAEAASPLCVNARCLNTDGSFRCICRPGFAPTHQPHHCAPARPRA

elastase
proteolytic digestion of 35S-labeled fragment (dose-response and time course) [1]: the human TP2E fragment is more readily cleaved than the mouse LTBP4 sequence
proteolytic digestion of 35S-labeled fragment (dose-response and time course) [2]: the human TP2E fragment is more readily cleaved than the mouse LTBP4 sequence

plasmin
plasmin proteolysis of full-length LTBP4 [3]: Full-length LTBP4 protein, produced from cultured cells, is also susceptible to plasmin proteolysis
proteolytic digestion of 35S-labeled fragment (dose-response and time course) [1]: the human TP2E fragment is more readily cleaved than the mouse LTBP4 sequence
proteolysis of expressed labeled fragment by plasmin [4]: the murine LTBP4 deleted for the 12 amino acids was readily degraded
proteolysis of expressed labeled fragment by plasmin [5]: Murine LTBP4 with the 12-amino-acid insertion was largely resistant to proteolysis
proteolytic digestion of 35S-labeled fragment (dose-response and time course) [2]: the human TP2E fragment is more readily cleaved than the mouse LTBP4 sequence
proteolysis of expressed labeled fragment by plasmin [6]: The human LTBP4 was most readily degraded
